Patent US20170024512A1

Target: RecBCD (endogenous exonuclease of the E. coli cell-free extract) (E. coli) (UniProt P08394)
Test: cell-based or functional assay

Sequence of UniProt P08394 (P08394 2-1180 limits assumed, chain 1 of 3): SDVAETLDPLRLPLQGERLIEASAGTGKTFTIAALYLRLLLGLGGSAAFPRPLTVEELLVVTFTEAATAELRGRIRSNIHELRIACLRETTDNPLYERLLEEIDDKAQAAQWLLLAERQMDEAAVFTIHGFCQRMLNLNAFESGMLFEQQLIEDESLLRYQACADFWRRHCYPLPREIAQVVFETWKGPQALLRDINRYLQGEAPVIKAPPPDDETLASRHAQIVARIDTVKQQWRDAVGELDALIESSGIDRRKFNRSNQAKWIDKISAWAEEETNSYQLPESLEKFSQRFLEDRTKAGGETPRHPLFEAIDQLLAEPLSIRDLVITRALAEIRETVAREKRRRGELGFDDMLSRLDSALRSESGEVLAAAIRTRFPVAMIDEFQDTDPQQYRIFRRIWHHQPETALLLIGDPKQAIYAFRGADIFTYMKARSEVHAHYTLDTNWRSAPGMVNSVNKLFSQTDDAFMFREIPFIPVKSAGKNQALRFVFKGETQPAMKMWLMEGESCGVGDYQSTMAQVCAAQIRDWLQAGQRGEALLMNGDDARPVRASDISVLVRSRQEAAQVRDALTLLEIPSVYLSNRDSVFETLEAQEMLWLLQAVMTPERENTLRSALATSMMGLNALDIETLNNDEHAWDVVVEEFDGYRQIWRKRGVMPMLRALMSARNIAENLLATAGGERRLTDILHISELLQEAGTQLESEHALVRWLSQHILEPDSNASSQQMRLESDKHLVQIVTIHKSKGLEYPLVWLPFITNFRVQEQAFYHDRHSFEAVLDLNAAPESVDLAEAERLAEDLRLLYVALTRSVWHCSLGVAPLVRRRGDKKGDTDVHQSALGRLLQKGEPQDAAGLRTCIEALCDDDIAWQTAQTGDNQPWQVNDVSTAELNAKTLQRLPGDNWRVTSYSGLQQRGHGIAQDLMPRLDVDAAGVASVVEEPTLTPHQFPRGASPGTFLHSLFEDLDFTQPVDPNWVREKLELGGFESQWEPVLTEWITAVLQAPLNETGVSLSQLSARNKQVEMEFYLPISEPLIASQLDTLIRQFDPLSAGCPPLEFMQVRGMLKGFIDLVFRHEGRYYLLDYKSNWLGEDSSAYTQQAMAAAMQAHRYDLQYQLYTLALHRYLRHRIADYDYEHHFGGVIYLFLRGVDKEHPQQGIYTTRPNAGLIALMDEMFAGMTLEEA
Sequence of UniProt P08394 (P07648 whole entry, chain 2 of 3, further chain): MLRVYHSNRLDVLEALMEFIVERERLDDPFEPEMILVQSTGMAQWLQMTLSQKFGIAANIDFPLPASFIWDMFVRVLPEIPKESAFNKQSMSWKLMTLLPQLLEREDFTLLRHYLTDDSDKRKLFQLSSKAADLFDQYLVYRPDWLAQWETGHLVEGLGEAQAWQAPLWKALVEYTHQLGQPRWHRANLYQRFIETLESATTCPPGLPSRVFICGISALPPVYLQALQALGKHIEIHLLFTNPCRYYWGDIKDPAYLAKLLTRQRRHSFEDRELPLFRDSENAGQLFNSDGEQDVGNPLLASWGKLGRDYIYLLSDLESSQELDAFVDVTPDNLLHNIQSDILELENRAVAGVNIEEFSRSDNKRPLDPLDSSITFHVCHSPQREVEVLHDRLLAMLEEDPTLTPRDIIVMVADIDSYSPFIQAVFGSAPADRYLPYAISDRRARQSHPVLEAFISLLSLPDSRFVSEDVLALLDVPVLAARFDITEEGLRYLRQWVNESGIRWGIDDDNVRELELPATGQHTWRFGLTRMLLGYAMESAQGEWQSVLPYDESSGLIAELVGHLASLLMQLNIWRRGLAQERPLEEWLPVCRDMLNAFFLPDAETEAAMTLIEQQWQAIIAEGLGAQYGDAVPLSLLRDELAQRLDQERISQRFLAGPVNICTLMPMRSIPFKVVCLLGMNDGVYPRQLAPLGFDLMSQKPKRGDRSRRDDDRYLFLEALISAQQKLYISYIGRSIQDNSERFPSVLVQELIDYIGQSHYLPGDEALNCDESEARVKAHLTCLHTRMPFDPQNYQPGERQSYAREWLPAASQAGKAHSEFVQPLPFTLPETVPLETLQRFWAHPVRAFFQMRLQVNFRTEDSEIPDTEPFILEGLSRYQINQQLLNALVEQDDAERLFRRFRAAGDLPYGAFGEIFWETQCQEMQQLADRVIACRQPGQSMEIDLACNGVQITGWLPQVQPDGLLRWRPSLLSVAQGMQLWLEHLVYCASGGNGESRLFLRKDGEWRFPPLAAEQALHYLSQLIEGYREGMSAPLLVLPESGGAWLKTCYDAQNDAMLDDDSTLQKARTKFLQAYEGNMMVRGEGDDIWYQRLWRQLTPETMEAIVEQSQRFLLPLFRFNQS
Sequence of UniProt P08394 (P04993 whole entry, chain 3 of 3, further chain): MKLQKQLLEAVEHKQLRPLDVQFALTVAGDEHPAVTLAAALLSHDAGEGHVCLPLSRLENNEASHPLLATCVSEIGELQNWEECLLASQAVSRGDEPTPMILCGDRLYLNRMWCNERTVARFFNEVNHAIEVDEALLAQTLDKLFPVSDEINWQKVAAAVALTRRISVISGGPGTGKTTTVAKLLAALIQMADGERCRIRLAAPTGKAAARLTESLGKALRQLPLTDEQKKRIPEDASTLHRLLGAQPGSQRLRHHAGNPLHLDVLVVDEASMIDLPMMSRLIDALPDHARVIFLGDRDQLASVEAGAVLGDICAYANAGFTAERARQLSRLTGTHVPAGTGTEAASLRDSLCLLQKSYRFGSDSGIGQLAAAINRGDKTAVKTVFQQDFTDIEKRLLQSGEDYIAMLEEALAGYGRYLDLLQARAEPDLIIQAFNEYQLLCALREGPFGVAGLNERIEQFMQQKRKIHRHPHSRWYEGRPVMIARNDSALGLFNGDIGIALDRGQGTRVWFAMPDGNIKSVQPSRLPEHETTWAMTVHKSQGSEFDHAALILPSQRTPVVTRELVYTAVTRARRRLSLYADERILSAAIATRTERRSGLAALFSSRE

gamS protein (GamS, a truncated form of lambda gam) (from UniProt P03702 1-98)
protection of linear DNA from degradation in TX-TL (endpoint deGFP expression from 2 nM linear DNA); gamS working concentration: 3.5 µM
